Measurements: PMC9499506, “TNF-α and IL-1β Modulate Blood-Brain Barrier Permeability and Decrease Amyloid-β Peptide Efflux in a Human Blood-Brain Barrier Model” (International Journal of Molecular Sciences, 2022)

Legend:
[1] = system: BLECs; test: Aβ1–40Cy5 peptide / FITC-inulin transport across untreated BLECs (Papp, transcytosis quotient); format: in vitro ADME, human; settings: 30 min, 37 °C, mean ± SEM; for apparent permeability coefficient (Papp), efflux transport, control: untreated human BLECs on Transwell insert, basolateral-to-apical, 10 nM Aβ1–40Cy5 with 1 µM FITC-inulin in RH-HSA 0.1% pH 7.4, slight agitation, fluorescence, at least three independent experiments in triplicate
Procedure: As TNF-α and IL-1β modulated the protein expression levels of LRP1, BCRP and PICALM (Figure 4), we investigated the effect of these cytokines on the transport of Aβ peptide across the BBB. After 24 h of treatment with proinflammatory cytokines, the apical-to-basolateral (influx) and basolateral-to-apical (efflux) Aβ1–40Cy5 peptide transports across the BLECs were assessed in the presence of FITC-inulin. The Aβ1–40 peptide was used in all experiments, as it is the most abundant amyloid peptide found on cerebral blood vessels. FITC-inulin was used to determine the nonspecific transcytosis quotient (Figure 5A). Indeed, unlike Aβ peptide, FITC-inulin is not actively cleared at the BBB and acts as a reference marker of paracellular permeability, thus as previously reported.
(§1) As described previously, the human in vitro blood-brain barrier (BBB) model based on the acquisition of the human brain-like endothelial cell (BLEC) phenotype was used for this study. This BBB model corresponds to a coculture of primary human endothelial cells (ECs) derived from CD34^+ cord blood hematopoietic stem cells and bovine brain pericytes, isolated as described by Vandenhaute and colleagues. Informed consent was obtained from all infants’ parents for the umbilical cord blood collection and use. Procedures for isolation of cells from umbilical cord were approved by the French Ministry of Higher Education and Research (CODECOH DC2011-1321, approved 31 January 2013) and by the local investigational review board (Béthune Maternity Hospital, Beuvry, France). Briefly, 8 × 10^4 ECs at passage 6 were seeded onto Matrigel-coated (BD Biosciences, San Jose, CA, USA) insert (pore size 0.4 μm, Costar Transwell inserts, Corning Inc., Corning, New York, NY, USA. Endothelial cells were cocultured with bovine brain pericytes at passage 10 in a 12-well plate gelatin-coated with ECM-5. Every two days, ECM-5 was changed until experiment. However, a minimum of 5 days of culture were required for the ECs to develop the BLEC phenotype and a maximum of 21 days of BLEC phenotype stability has been determined. Once BLEC phenotype was acquired, these cells delimited two compartments, one mimicking the blood side (corresponding to the apical compartment) and the other the brain side (corresponding to the basolateral side). […]
After proinflammatory cytokine treatments, the influx (apical-to-basolateral) and the efflux (basolateral-to-apical) transport of Aβ1–40 peptides across BLECs were investigated as previously described. […] The BBB integrity was determined by measuring the endothelial permeability of a radioactive integrity marker, ^14C-sucrose, using the same method of calculation as described in Section 4.4. […]

[2] = system: BLECs; settings: MTT assay; 10% (v/v) DMSO, 24 h; positive control of cell toxicity; mean of at least three independent experiments in triplicate
Procedure: An MTT assay was performed as a preliminary test to determine their effect on BLEC viability and to validate the chosen concentrations. Dimethyl sulfoxide (DMSO) at 10% (v/v) was used as a positive control of cell toxicity.
After 6 days of coculture, TNF-α or IL-1β were added to the basolateral compartment (brain side) at 10 ng·mL^−1 for 24 h, at 37 °C and 5% CO2, to mimic CNS inflammation condition. Each condition was studied in triplicate.
The standard MTT [3-(4,5-dimethylthiazol-2-yl)-2,5-diphenyltetrazolium bromide] assay (AR1156, Boster Biological Technology, Pleasanton, CA, USA) was performed to determine BLEC viability. Briefly, after coculture treatments, culture medium was removed and replaced with worm Ringer-Hepes (RH; 150 mM NaCl, 5.2 mM KCl, 2.2 mM CaCl2, 0.2 mM MgCl2–6H2O, 6 mM NaHCO3, 5 mM HEPES, 2.8 mM glucose; pH: 7.4) in basolateral compartment and with MTT solution (0.5 mg·mL^−1) in RH at in the opposite compartment for 3 h at 37 °C and 5% CO2. […] Aliquot was sampled in 96-well plate and the optical density (OD) was measured with a microplate reader (Synergy H1, BioTek. Colmar, France) at the wavelength of 570 and 630 nm. The percentage of relative cell viability compared to the control condition was subsequently determined using the following formula: % relative cell viability = ((OD570 − OD630) condition)/((OD570 – OD630)control) × 100.

[3] = system: BLEC monolayer; test: Endothelial permeability coefficient of lucifer yellow across untreated BLEC monolayer; format: in vitro ADME, human; settings: mean ± SEM
From the text: as §1, with “Procedures for isolation of cells from umbilical cord were approved by the French Ministry of Higher Education and Research (CODECOH DC2011-1321, approved 31 January 2013) and by the local investigational review board (Béthune Maternity Hospital, Beuvry, France).” left out
The BLEC monolayer integrity was evaluated after each treatment using the method described by Dehouck and colleagues. […]

## FITC-inulin
[1]
  apparent permeability coefficient (Papp), efflux transport, control: 1.41 ± 0.03 × 10^−6 cm·min^−1

## C[S+](C)[O-] [DMSO, Dimethyl sulfoxide, reference compound]
[2]
  decrease of BLEC viability compared to control: 26.5%

## Lucifer Yellow CH dilithium salt [LY]
[3]; PeLY at 37 °C minus PeLY at 4 °C
  transcellular PeLY, control BLECs: 0.36 ± 0.02 × 10^−3 cm·min^−1
[3]; as total PeLY but at 4 °C (transcellular pathway inhibited), 50 µM LY in RH buffer, fluorescence
  paracellular PeLY, control BLECs: 0.18 ± 0.01 × 10^−3 cm·min^−1

## human amyloid-β peptide (1–40)-Cy5 [Aβ1–40Cy5]
[1]; efflux Aβ1–40Cy5 Papp / efflux FITC-inulin Papp, untreated BLECs
  transcytosis quotient of Aβ1–40Cy5, efflux direction, control: 3.22 ± 0.13
[1]; influx Aβ1–40Cy5 Papp / influx FITC-inulin Papp, untreated BLECs
  transcytosis quotient of Aβ1–40Cy5, influx direction, control: 3.10 ± 0.25
[1]
  apparent permeability coefficient (Papp), efflux transport, control: 4.47 ± 0.16 × 10^−6 cm·min^−1
